These results are taken from PMC5890177, “Selective Detection of Lysozyme Biomarker Utilizing Large Area Chemical Vapor Deposition-Grown Graphene-Based Field-Effect Transistor”.

In the data set the target is lysozyme (chicken (egg white), UniProt P00698 19-147). Kind of data set: square wave voltammetry (electrochemical aptasensor); 0.01x PBS; peak current falls with lysozyme; 0.01x PBS (stock dilutions in 0.1 mM phosphate-buffered solution, pH 7.4), 30 min incubation, then rinse in 0.01x PBS and DI water; chip pretreated with Tween 20; binding temperature not stated. The settings on record: protein: commercial; label: methylene blue.
Chain of lysozyme (P00698 19-147): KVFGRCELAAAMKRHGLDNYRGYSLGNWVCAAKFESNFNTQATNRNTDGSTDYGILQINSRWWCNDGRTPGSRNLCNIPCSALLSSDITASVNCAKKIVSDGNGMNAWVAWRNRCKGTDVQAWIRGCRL

B1: MB-labelled thiolated anti-lysozyme aptamer (ssDNA)
DNA: ATCAGGGCTAAAGAGTGCAGAGTTACTTAG
modifications: thiol
For B1, the binding result was “binds”.
